# Target: T1, VEGF (UniProt P15692-4 27-191)
# T1 construct: Bought reagent; also called vascular endothelial growth factor
# Assay: SPR (Biacore), DVD-Ig captured, VEGF in solution
# T1 sequence (P15692 other isoform, or with tags, fused parts or gaps limits assumed): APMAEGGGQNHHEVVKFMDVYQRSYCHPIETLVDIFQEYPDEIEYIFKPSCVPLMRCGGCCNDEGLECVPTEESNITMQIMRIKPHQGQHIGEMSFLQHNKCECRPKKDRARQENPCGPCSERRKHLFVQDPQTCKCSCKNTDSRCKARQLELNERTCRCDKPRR
Binder,Kd,koff,kon
"DVD452 (bispecific antibody, human IgG1, kappa, L234A L235A, DVD-Ig; N-term; VD AB071 (VEGF), C-term; VD AB069 (DLL4); HC linker long, LC linker long; also called DVD452H; DVD452L) heavy: not shown light: DIQMTQSPSSLSASVGDRVTITCRASQVIRRSLAWYQQKPGKAPKLLIYAASNLASGVPSRFSGSGSGTDFTLTISSLQPEDFATYYCQQSNTSPLTFGQGTKVEIKRTVAAPSVFIFPPDIVMTQSPDSLAVSLGERATISCRASESVDNYGISFMKWFQQKPGQPPKLLIYAASNQGSGVPDRFSGSGSGTDFTLTISSLQAEDVAVYYCQQSKEVPWTFGGGTKVEIKRTVAAPSVFIFPPSDEQLKSGTASVVCLLNNFYPREAKVQWKVDNALQSGNSQESVTEQDSKDSTYSLSSTLTLSKADYEKHKVYACEVTHQGLSSPVTKSFNRGEC",0.000155 nM,1.61e-08 s⁻¹,104000 M⁻¹ s⁻¹
"DVD464 (bispecific antibody, human IgG1, kappa, DVD-Ig; N-term; VD AB071 (VEGF), C-term; VD AB069 (DLL4); HC linker short, LC linker long; also called DVD464H; DVD464L) heavy: not shown light: DIQMTQSPSSLSASVGDRVTITCRASQVIRRSLAWYQQKPGKAPKLLIYAASNLASGVPSRFSGSGSGTDFTLTISSLQPEDFATYYCQQSNTSPLTFGQGTKVEIKRTVAAPSVFIFPPDIVMTQSPDSLAVSLGERATISCRASESVDNYGISFMKWFQQKPGQPPKLLIYAASNQGSGVPDRFSGSGSGTDFTLTISSLQAEDVAVYYCQQSKEVPWTFGGGTKVEIKRTVAAPSVFIFPPSDEQLKSGTASVVCLLNNFYPREAKVQWKVDNALQSGNSQESVTEQDSKDSTYSLSSTLTLSKADYEKHKVYACEVTHQGLSSPVTKSFNRGEC",0.00077 nM,7.22e-08 s⁻¹,93700 M⁻¹ s⁻¹
"DVD446 (bispecific antibody, human IgG1, kappa, DVD-Ig; N-term; VD AB071 (VEGF), C-term; VD AB069 (DLL4); HC linker short, LC linker short; also called DVD446H; DVD446L) heavy: not shown light: DIQMTQSPSSLSASVGDRVTITCRASQVIRRSLAWYQQKPGKAPKLLIYAASNLASGVPSRFSGSGSGTDFTLTISSLQPEDFATYYCQQSNTSPLTFGQGTKVEIKRTVAAPDIVMTQSPDSLAVSLGERATISCRASESVDNYGISFMKWFQQKPGQPPKLLIYAASNQGSGVPDRFSGSGSGTDFTLTISSLQAEDVAVYYCQQSKEVPWTFGGGTKVEIKRTVAAPSVFIFPPSDEQLKSGTASVVCLLNNFYPREAKVQWKVDNALQSGNSQESVTEQDSKDSTYSLSSTLTLSKADYEKHKVYACEVTHQGLSSPVTKSFNRGEC",0.000297 nM,3.62e-08 s⁻¹,122000 M⁻¹ s⁻¹
"DVD458 (bispecific antibody, human IgG1, kappa, L234A L235A, DVD-Ig; N-term; VD AB071 (VEGF), C-term; VD AB069 (DLL4); HC linker long, LC linker short; also called DVD458H; DVD458L) heavy: not shown light: DIQMTQSPSSLSASVGDRVTITCRASQVIRRSLAWYQQKPGKAPKLLIYAASNLASGVPSRFSGSGSGTDFTLTISSLQPEDFATYYCQQSNTSPLTFGQGTKVEIKRTVAAPDIVMTQSPDSLAVSLGERATISCRASESVDNYGISFMKWFQQKPGQPPKLLIYAASNQGSGVPDRFSGSGSGTDFTLTISSLQAEDVAVYYCQQSKEVPWTFGGGTKVEIKRTVAAPSVFIFPPSDEQLKSGTASVVCLLNNFYPREAKVQWKVDNALQSGNSQESVTEQDSKDSTYSLSSTLTLSKADYEKHKVYACEVTHQGLSSPVTKSFNRGEC",0.000281 nM,3.39e-08 s⁻¹,121000 M⁻¹ s⁻¹
"DVD480 (bispecific antibody, human IgG1, kappa, DVD-Ig; N-term; VD AB071 (VEGF), C-term; VD AB015 (DLL4); HC linker long, LC linker short; also called DVD480H; DVD480L) heavy: not shown light: DIQMTQSPSSLSASVGDRVTITCRASQVIRRSLAWYQQKPGKAPKLLIYAASNLASGVPSRFSGSGSGTDFTLTISSLQPEDFATYYCQQSNTSPLTFGQGTKVEIKRTVAAPDIQMTQSPSSLSASVGDRVTITCRASQDVSTAVAWYQQKPGKAPKLLIYSASFLYSGVPSRFSGSGSGTDFTLTISSLQPEDFATTYYCQQSYTGTVTFGQGTKVEIKRTVAAPSVFIFPPSDEQLKSGTASVVCLLNNFYPREAKVQWKVDNALQSGNSQESVTEQDSKDSTYSLSSTLTLSKADYEKHKVYACEVTHQGLSSPVTKSFNRGEC",0.302 nM,4.91e-05 s⁻¹,162000 M⁻¹ s⁻¹
"DVD474 (bispecific antibody, human IgG1, kappa, DVD-Ig; N-term; VD AB071 (VEGF), C-term; VD AB015 (DLL4); HC linker long, LC linker long; also called DVD474H; DVD474L) heavy: not shown light: DIQMTQSPSSLSASVGDRVTITCRASQVIRRSLAWYQQKPGKAPKLLIYAASNLASGVPSRFSGSGSGTDFTLTISSLQPEDFATYYCQQSNTSPLTFGQGTKVEIKRTVAAPSVFIFPPDIQMTQSPSSLSASVGDRVTITCRASQDVSTAVAWYQQKPGKAPKLLIYSASFLYSGVPSRFSGSGSGTDFTLTISSLQPEDFATTYYCQQSYTGTVTFGQGTKVEIKRTVAAPSVFIFPPSDEQLKSGTASVVCLLNNFYPREAKVQWKVDNALQSGNSQESVTEQDSKDSTYSLSSTLTLSKADYEKHKVYACEVTHQGLSSPVTKSFNRGEC",0.00144 nM,–,–
"DVD486 (bispecific antibody, human IgG1, kappa, DVD-Ig; N-term; VD AB071 (VEGF), C-term; VD AB015 (DLL4); HC linker short, LC linker long; also called DVD486H; DVD486L) heavy: not shown light: DIQMTQSPSSLSASVGDRVTITCRASQVIRRSLAWYQQKPGKAPKLLIYAASNLASGVPSRFSGSGSGTDFTLTISSLQPEDFATYYCQQSNTSPLTFGQGTKVEIKRTVAAPSVFIFPPDIQMTQSPSSLSASVGDRVTITCRASQDVSTAVAWYQQKPGKAPKLLIYSASFLYSGVPSRFSGSGSGTDFTLTISSLQPEDFATTYYCQQSYTGTVTFGQGTKVEIKRTVAAPSVFIFPPSDEQLKSGTASVVCLLNNFYPREAKVQWKVDNALQSGNSQESVTEQDSKDSTYSLSSTLTLSKADYEKHKVYACEVTHQGLSSPVTKSFNRGEC",0.371 nM,–,–

# Further lines, results first:
Kd,koff,kon,Binder
0.45 nM,0.00022 s⁻¹,489000 M⁻¹ s⁻¹,"DVD522 (bispecific antibody, human IgG1, kappa, lambda, L234A L235A, DVD-Ig; N-term; VD AB071 (VEGF), C-term; VD AB073 (DLL4); HC linker long, LC linker long; also called DVD522H; DVD522L) heavy: not shown light: DIQMTQSPSSLSASVGDRVTITCRASQVIRRSLAWYQQKPGKAPKLLIYAASNLASGVPSRFSGSGSGTDFTLTISSLQPEDFATYYCQQSNTSPLTFGQGTKVEIKRTVAAPSVFIFPPQAVVTQESALTTSPGETVTLTCRSSTGAVTTSNYANWVQEKPDHLFTGLIGGTNNRAPGVPARFSGSLIGDKAALTITGAQTEDEAIYFCALWYSNHWVFGGGTKLTVLGQPKAAPSVTLFPPSSEELQANKATLVCLISDFYPGAVTVAWKADSSPVKAGVETTTPSKQSNNKYAASSYLSLTPEQWKSHRSYSCQVTHEGSTVEKTVAPTECS"
0.781 nM,0.00028 s⁻¹,358000 M⁻¹ s⁻¹,"DVD516 (bispecific antibody, human IgG1, lambda, DVD-Ig; N-term; VD AB071 (VEGF), C-term; VD AB073 (DLL4); HC linker short, LC linker short; also called DVD516H; DVD516L) heavy: not shown light: DIQMTQSPSSLSASVGDRVTITCRASQVIRRSLAWYQQKPGKAPKLLIYAASNLASGVPSRFSGSGSGTDFTLTISSLQPEDFATYYCQQSNTSPLTFGQGTKVEIKRTVAAPQAVVTQESALTTSPGETVTLTCRSSTGAVTTSNYANWVQEKPDHLFTGLIGGTNNRAPGVPARFSGSLIGDKAALTITGAQTEDEAIYFCALWYSNHWVFGGGTKLTVLGQPKAAPSVTLFPPSSEELQANKATLVCLISDFYPGAVTVAWKADSSPVKAGVETTTPSKQSNNKYAASSYLSLTPEQWKSHRSYSCQVTHEGSTVEKTVAPTECS"

# Target: T2, DLL4 ECD His tag (UniProt Q9NR61 27-529, limits assumed)
# T2 construct: extracellular domain; also called DLL ECD His tag
# Assay: SPR (Biacore), DVD-Ig captured, DLL4 as analyte
Binder,Kd,koff,kon
"DVD496 (bispecific antibody, human IgG1, kappa, HC linker long, LC linker long; also called DVD-Ig DVD496) heavy: not shown light: DIQMTQSPSSLSASVGDRVTITCRASQDVSTAVAWYQQKPGKAPKLLIYSASFLYSGVPSRFSGSGSGTDFTLTISSLQPEDFATYYCQQSYTTPPTFGQGTKVEIKRTVAAPSVFIFPPDIQMTQSSSYLSVSLGGRVTITCKASDHINNWLAWYQQKPGNAPRLLISGATSLETGVPSRFSGSGSGKDYTLSITSLQTEDVATYYCQQYWSIPLTFGAGTKLELKRTVAAPSVFIFPPSDEQLKSGTASVVCLLNNFYPREAKVQWKVDNALQSGNSQESVTEQDSKDSTYSLSSTLTLSKADYEKHKVYACEVTHQGLSSPVTKSFNRGEC",1.44 nM,0.000172 s⁻¹,120000 M⁻¹ s⁻¹
"DVD490 (bispecific antibody, human IgG1, kappa, HC linker short, LC linker short; also called DVD-Ig DVD490) heavy: not shown light: DIQMTQSPSSLSASVGDRVTITCRASQDVSTAVAWYQQKPGKAPKLLIYSASFLYSGVPSRFSGSGSGTDFTLTISSLQPEDFATYYCQQSYTTPPTFGQGTKVEIKRTVAAPDIQMTQSSSYLSVSLGGRVTITCKASDHINNWLAWYQQKPGNAPRLLISGATSLETGVPSRFSGSGSGKDYTLSITSLQTEDVATYYCQQYWSIPLTFGAGTKLELKRTVAAPSVFIFPPSDEQLKSGTASVVCLLNNFYPREAKVQWKVDNALQSGNSQESVTEQDSKDSTYSLSSTLTLSKADYEKHKVYACEVTHQGLSSPVTKSFNRGEC",0.528 nM,7.7e-05 s⁻¹,146000 M⁻¹ s⁻¹

# Other lines, results leading:
Kd,koff,kon,Binder
1.7 nM,0.000167 s⁻¹,98400 M⁻¹ s⁻¹,"DVD508 (bispecific antibody, human IgG1, kappa, HC linker short, LC linker long; also called DVD-Ig DVD508) heavy: not shown light: DIQMTQSPSSLSASVGDRVTITCRASQDVSTAVAWYQQKPGKAPKLLIYSASFLYSGVPSRFSGSGSGTDFTLTISSLQPEDFATYYCQQSYTTPPTFGQGTKVEIKRTVAAPSVFIFPPDIQMTQSSSYLSVSLGGRVTITCKASDHINNWLAWYQQKPGNAPRLLISGATSLETGVPSRFSGSGSGKDYTLSITSLQTEDVATYYCQQYWSIPLTFGAGTKLELKRTVAAPSVFIFPPSDEQLKSGTASVVCLLNNFYPREAKVQWKVDNALQSGNSQESVTEQDSKDSTYSLSSTLTLSKADYEKHKVYACEVTHQGLSSPVTKSFNRGEC"
0.807 nM,7.43e-05 s⁻¹,92100 M⁻¹ s⁻¹,"DVD502 (bispecific antibody, human IgG1, kappa, HC linker long, LC linker short; also called DVD-Ig DVD502) heavy: not shown light: DIQMTQSPSSLSASVGDRVTITCRASQDVSTAVAWYQQKPGKAPKLLIYSASFLYSGVPSRFSGSGSGTDFTLTISSLQPEDFATYYCQQSYTTPPTFGQGTKVEIKRTVAAPDIQMTQSSSYLSVSLGGRVTITCKASDHINNWLAWYQQKPGNAPRLLISGATSLETGVPSRFSGSGSGKDYTLSITSLQTEDVATYYCQQYWSIPLTFGAGTKLELKRTVAAPSVFIFPPSDEQLKSGTASVVCLLNNFYPREAKVQWKVDNALQSGNSQESVTEQDSKDSTYSLSSTLTLSKADYEKHKVYACEVTHQGLSSPVTKSFNRGEC"
5.55 nM,0.000629 s⁻¹,113000 M⁻¹ s⁻¹,"DVD526 (bispecific antibody, human IgG1, lambda, HC linker long, LC linker short; also called DVD-Ig DVD526) heavy: not shown light: DIQMTQSPSSLSASVGDRVTITCRASQDVSTAVAWYQQKPGKAPKLLIYSASFLYSGVPSRFSGSGSGTDFTLTISSLQPEDFATYYCQQSYTTPPTFGQGTKVEIKRTVAAPQAVVTQESALTTSPGETVTLTCRSSTGAVTTSNYANWVQEKPDHLFTGLIGGTNNRAPGVPARFSGSLIGDKAALTITGAQTEDEAIYFCALWYSNHWVFGGGTKLTVLGQPKAAPSVTLFPPSSEELQANKATLVCLISDFYPGAVTVAWKADSSPVKAGVETTTPSKQSNNKYAASSYLSLTPEQWKSHRSYSCQVTHEGSTVEKTVAPTECS"
6.85 nM,0.00081 s⁻¹,118000 M⁻¹ s⁻¹,"DVD532 (bispecific antibody, human IgG1, kappa, lambda, HC linker short, LC linker long; also called DVD-Ig DVD532) heavy: not shown light: DIQMTQSPSSLSASVGDRVTITCRASQDVSTAVAWYQQKPGKAPKLLIYSASFLYSGVPSRFSGSGSGTDFTLTISSLQPEDFATYYCQQSYTTPPTFGQGTKVEIKRTVAAPSVFIFPPQAVVTQESALTTSPGETVTLTCRSSTGAVTTSNYANWVQEKPDHLFTGLIGGTNNRAPGVPARFSGSLIGDKAALTITGAQTEDEAIYFCALWYSNHWVFGGGTKLTVLGQPKAAPSVTLFPPSSEELQANKATLVCLISDFYPGAVTVAWKADSSPVKAGVETTTPSKQSNNKYAASSYLSLTPEQWKSHRSYSCQVTHEGSTVEKTVAPTECS"

# From patent US20100260668A1 (published 2010)
